Experimental data from the supplement of paper PMC11316812.
± gives the standard deviation of the averaged measurements.

What was measured:
hTERT-HMEC = test: percentage of EdU-negative (G0-arrested) nuclei per well, 72 h; higher = more G0 arrest; details: reference: sequence is the full UniProt precursor, the tested protein was the secreted form or ectodomain
MCF7 = test: as above; details: reference: sequence is the full UniProt precursor, the tested protein was the secreted form or ectodomain
[1] = protein concentration 0.03125 µM
[2] = protein concentration 0.3125 µM
[3] = protein concentration 0.01275 µM
[4] = protein concentration 0.1275 µM
[5] = protein concentration 0.0225 µM
[6] = protein concentration 0.0125 µM
[7] = protein concentration 0.0262857 µM
[8] = protein concentration 0.262857 µM
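Also: secreted proteins added to cultured cells, EdU pulse at the end, nuclei found by Hoechst imaging, EdU status from nuclear versus surrounding ring intensity ratio, PBS as neutral control.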

With “MTRALCSALRQALLLLAAAAELSPGLKCVCLLCDSSNFTCQTEGACWASVMLTNGKEQVIKSCVSLPELNAQVFCHSSNNVTKTECCFTDFCNNITLHLPTASPNAPKLGPMELAIIITVPVCLLSIAAMLTVWACQGRQCSYRKKKRPNVEEPLSECNLVNAGKTLKDLIYDVTASGSGSGLPLLVQRTIARTIVLQEIVGKGRFGEVWHGRWCGEDVAVKIFSSRDERSWFREAEIYQTVMLRHENILGFIAADNKDNGTWTQLWLVSEYHEQGSLYDYLNRNIVTVAGMIKLALSIASGLAHLHMEIVGTQGKPAIAHRDIKSKNILVKKCETCAIADLGLAVKHDSILNTIDIPQNPKVGTKRYMAPEMLDDTMNVNIFESFKRADIYSVGLVYWEIARRCSVGGIVEEYQLPYYDMVPSDPSIEEMRKVVCDQKFRPSIPNQWQSCEALRVMGRIMRECWYANGAARLTALRIKKTISQLCVKEDCKA [Q8NER5]” the “percentage of EdU-negative” value (hTERT-HMEC; [1]) was 4.41 ± 0.6%, the “percentage of EdU-negative” value (hTERT-HMEC; [2]) was 4.47 ± 0.65% and the “percentage of EdU-negative” value (MCF7; [1]) was 24.6 ± 0.8%. The “percentage of EdU-negative” value (MCF7; [2]) was 26 ± 0.41%.
For “MAATSLMSALAARLLQPAHSCSLRLRPFHLAAVRNEAVVISGRKLAQQIKQEVRQEVEEWVASGNKRPHLSVILVGENPASHSYVLNKTRAAAVVGINSETIMKPASISEEELLNLINKLNNDDNVDGLLVQLPLPEHIDERRICNAVSPDKDVDGFHVINVGRMCLDQYSMLPATPWGVWEIIKRTGIPTLGKNVVVAGRSKNVGMPIAMLLHTDGAHERPGGDATVTISHRYTPKEQLKKHTILADIVISAAGIPNLITADMIKEGAAVIDVGINRVHDPVTAKPKLVGDVDFEGVRQKAGYITPVPGGVGPMTVAMLMKNTIIAAKKVLRLEEREVLKSKELGVATN”, the “percentage of EdU-negative” value (hTERT-HMEC; [3]) was 4.46 ± 0.17%, the “percentage of EdU-negative” value (hTERT-HMEC; [4]) was 5.45 ± 0.4% and the “percentage of EdU-negative” value (MCF7; [3]) was 24 ± 0.89%. The “percentage of EdU-negative” value (MCF7; [4]) was 29 ± 2%.
In the case of “MLPPMALPSVSWMLLSCLILLCQVQGEETQKELPSPRISCPKGSKAYGSPCYALFLSPKSWMDADLACQKRPSGKLVSVLSGAEGSFVSSLVRSISNSYSYIWIGLHDPTQGSEPDGDGWEWSSTDVMNYFAWEKNPSTILNPGHCGSLSRSTGFLKWKDYNCDAKLPYVCKFKD [Q6UW15]”, the “percentage of EdU-negative” value (hTERT-HMEC; [5]) is reported as 4.59 ± 0.17%, the “percentage of EdU-negative” value (hTERT-HMEC; protein concentration 0.225 µM) is reported as 5.21 ± 0.13% and the “percentage of EdU-negative” value (MCF7; [5]) is reported as 25.43 ± 0.028%. For the same sequence, the “percentage of EdU-negative” value (MCF7; protein concentration 0.225 µM) was 26.8 ± 1.6%.
“MVAALLGGGGEARGGTVPGAWLCLMALLQLLGSAPRGSGLAHGRRLICWQALLQCQGEPECSYAYNQYAEACAPVLAQHGGGDAPGAAAAAFPASAASFSSRWRCPSHCISALIQLNHTRRGPALEDCDCAQDENCKSTKRAIEPCLPRTSGGGAGGPGAGGVMGCTEARRRCDRDSRCNLALSRYLTYCGKVFNGLRCTDECRTVIEDMLAMPKAALLNDCVCDGLERPICESVKENMARLCFGAELGNGPGSSGSDGGLDDYYDEDYDDEQRTGGAGGEQPLDDDDGVPHPPRPGSGAAASGGRGDLPYGPGRRSSGGGGRLAPRGAWTPLASILLLLLGPLF” was tested, and the “percentage of EdU-negative” value (hTERT-HMEC; [5]) was 4.96 ± 0.62%, the “percentage of EdU-negative” value (hTERT-HMEC; protein concentration 0.225 µM) was 5.68 ± 0.97% and the “percentage of EdU-negative” value (MCF7; [5]) was 24.6 ± 0.7%. For the same sequence, the “percentage of EdU-negative” value (MCF7; protein concentration 0.225 µM) was 26.9 ± 0.34%.
For “MDTRNKAQLLVLLTLLSVLFSQTSAWPLYRAPSALRLGDRIPFEGANEPDQVSLKEDIDMLQNALAENDTPYYDVSRNARHADGVFTSDFSKLLGQLSAKKYLESLMGKRVSSNISEDPVPVKRHSDAVFTDNYTRLRKQMAVKKYLNSILNGKRSSEGESPDFPEELEK”, the “percentage of EdU-negative” value (hTERT-HMEC; [6]) was 5.76 ± 0.37%, the “percentage of EdU-negative” value (hTERT-HMEC; protein concentration 0.125 µM) was 5.43 ± 0.065% and the “percentage of EdU-negative” value (MCF7; [6]) was 27.7 ± 3.4%. The “percentage of EdU-negative” value (MCF7; protein concentration 0.125 µM) was 22.42 ± 0.17%.
In the case of “MDSDETGFEHSGLWVSVLAGLLLGACQAHPIPDSSPLLQFGGQVRQRYLYTDDAQQTEAHLEIREDGTVGGAADQSPESLLQLKALKPGVIQILGVKTSRFLCQRPDGALYGSLHFDPEACSFRELLLEDGYNVYQSEAHGLPLHLPGNKSPHRDPAPRGPARFLPLPGLPPALPEPPGILAPQPPDVGSSDPLSMVGPSQGRSPSYAS [Q9NSA1]”, the “percentage of EdU-negative” value (hTERT-HMEC; [1]) is reported as 4.59 ± 0.26%, the “percentage of EdU-negative” value (hTERT-HMEC; [2]) is reported as 5.63 ± 0.48% and the “percentage of EdU-negative” value (MCF7; [1]) is reported as 25 ± 1.2%. For the same sequence, the “percentage of EdU-negative” value (MCF7; [2]) was 23.9 ± 1.2%.
For “MARRRRRACIALFLVLLFAFGTLMGLRTLKAPDGLPALGPGLELAPFERRPEGAPAPAARAPAAPAAPPPPPPPPRTADPGGSPGPAPAEAEPAPVQSLRVYSDLHAFYYSWYGSPRREGHYIHWDHVMVPHWDPKISASYPRGRHSPPDDLGSSFYPELGPYSSRDPEVLREHMTQLKEAAIGVLVLSWYPPGMADDNGEPSDDLVPAILDTAHQYSIQVAFHIQPYKGRDDITVHDNIKYIIDTYGSHGAFYRYKNSMGKSLPLFYIYDSYLTSPEAWAHLLTPNGPHSIRNTPYDGVFIALLVEEGHTHDILAAGFDGMYTYFASNGFSFGSSHQNWKAVKNFCDANNLMFIPSVGPGYIDTSIRPWNNHNTRNRVNGKYYETALQAALTVRPEIVSITSFNEWHEGTQIEKAIPKKTPTRLYLDYLPHQPSLYLELTRRWAEHFIKEKEQWLM [Q5VSG8]”, the “percentage of EdU-negative” value (hTERT-HMEC; [5]) was 4.99 ± 0.62%, the “percentage of EdU-negative” value (hTERT-HMEC; protein concentration 0.225 µM) was 9.23 ± 0.73% and the “percentage of EdU-negative” value (MCF7; [5]) was 25.6 ± 0.44%. The “percentage of EdU-negative” value (MCF7; protein concentration 0.225 µM) was 28.3 ± 2.4%.
“MFLKAVVLTLALVAVAGARAEVSADQVATVMWDYFSQLSNNAKEAVEHLQKSELTQQLNALFQDKLGEVNTYAGDLQKKLVPFATELHERLAKDSEKLKEEIGKELEELRARLLPHANEVSQKIGDNLRELQQRLEPYADQLRTQVSTQAEQLRRQLTPYAQRMERVLRENADSLQASLRPHADELKAKIDQNVEELKGRLTPYADEFKVKIDQTVEELRRSLAPYAQDTQEKLNHQLEGLTFQMKKNAEELKARISASAEELRQRLAPLAEDVRGNLRGNTEGLQKSLAELGGHLDQQVEEFRRRVEPYGENFNKALVQQMEQLRQKLGPHAGDVEGHLSFLEKDLRDKVNSFFSTFKEKESQDKTLSLPELEQQQEQQQEQQQEQVQMLAPLES” was tested, and the “percentage of EdU-negative” value (hTERT-HMEC; [7]) was 5.7 ± 1%, the “percentage of EdU-negative” value (hTERT-HMEC; [8]) was 7.022 ± 0.041% and the “percentage of EdU-negative” value (MCF7; [7]) was 22.7 ± 1.3%. The “percentage of EdU-negative” value (MCF7; [8]) was 27 ± 1.5%.
